According to the supplement of paper PMC10598134:
± gives the standard deviation.

Experiment: collision cross section of unmodified peptide (TIMS, N2, iRT-aligned); higher = larger / more extended gas-phase ion
Protocol: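 Unmodified synthetic counterpart peptides (ProteomeTools / JPT), analysed by nanoLC-TIMS-QTOF (dda-PASEF). 1/K0 was aligned run-wise to spiked iRT peptides and converted to CCS in N2 (Mason-Schamp). Values are the mean of 1-3 technical replicates for the most abundant feature at each charge state. The same unmodified peptide is repeated across rows and is averaged.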

Row | Substance | collision cross section (charge state: 2) [Å²] | collision cross section (charge state: 3) [Å²]
1 | GGPGSTLSFVGKR | 395.98 ± 0.53 | 456.87 ± 1.5
2 | SYGIPYIETSAK | 384.66 ± 0.47 | 
3 | PAVTAAPK | 290.54 ± 0.15 | 
4 | VYSLFLDESR | 376.99 ± 0.94 | 
5 | LNAIYQNNLTK | 381.14 ± 0.16 | 
6 | ASAISIKLGSSK | 373.11 ± 0.93 | 446.31 ± 5.8
7 | VGIDTPDIDIHGPEGKLK | 461.05 ± 2.5 | 538.36 ± 1.9
8 | TTSYPTPRPYPKPAPSSGK |  | 522.76 ± 0.86
9 | DYQPGITFIVVQK | 401.42 ± 0.24 | 485.74
10 | DFAFYNPRLQGK | 408.01 ± 1.3 | 473.2 ± 2.9
11 | TLQKQSVVYGGK | 390.15 ± 1.7 | 444.64 ± 5
12 | GKLGVPGLPGYPGR | 385.87 ± 0.86 | 480.85 ± 1.2
13 | GEGGFGGRGGGR | 340.19 ± 0.38 | 426.14 ± 4
14 | PRTPTAPAVNLAGAR | 406.96 ± 1.8 | 484.37 ± 1.2
15 | SRGGGGNFGPGPGSNFR |  | 460.96 ± 1.4
16 | YEATSVQQK | 342.24 ± 1.4 | 
17 | SPDEAYAIAKK | 371.22 ± 1.1 | 435.25 ± 4.4
18 | ANLEKAQAELVGTADEATR | 474.85 ± 3.3 | 519.38 ± 2.8
19 | VEPGSLESSPGLGRGR | 425.39 ± 1.8 | 497.45 ± 0.11
20 | YVGESEANIR | 358.37 ± 0.55 | 
21 | YTCSFCGK | 338.71 ± 0.48 | 
22 | HSPTLPEPGGLRLELPLSR |  | 583.19

Row | Substance | collision cross section (charge state: 2) [Å²] | collision cross section (charge state: 3) [Å²]
23 | LLRGVGGSHGR | 358.18 ± 0.097 | 450.84 ± 3.9
24 | GSLGAQKLANTCFNEIEK | 483.18 ± 2.7 | 511.29 ± 4.4
25 | GPPGPPGR | 295.47 ± 0.78 | 
26 | LAEEENKAK | 348.48 ± 1.2 | 421.19 ± 4.7
27 | VTRYPILGIPQAHR |  | 523.45 ± 1.1
28 | GEPGIPAIPGIRGPK | 382.37 ± 0.58 | 515.69 ± 0.34
29 | YEQEHAAIQDKLFQVAK |  | 555.79 ± 2.3
30 | VDVEVPDVSLEGPEGKLK | 461.73 ± 2.9 | 514.03 ± 36
31 | LTEKELAEAASK | 387.7 ± 1 | 479.05 ± 4.3
32 | DYSQPTAAATVQDIK | 421.28 ± 0.57 | 
33 | IFDSEEILAGYK | 391.02 ± 0.47 | 
34 | YEEIVKEVSTYIK | 443.47 ± 2.8 | 492.72 ± 2.3
35 | GGNFGGRGGYGGGGGGSR | 404.35 ± 1.4 | 464.41 ± 2.6
36 | DLYEPSHGAK | 358.09 ± 0.48 | 429.53 ± 1.1
37 | GRGAAAAGGPQR | 344.37 ± 5.2 | 433.7 ± 4.8
38 | PSVSTKLISK | 360.6 ± 1.3 | 423.25 ± 3.8
39 | GDAGEPGR | 283.75 ± 1.9 | 
40 | LAEQEAHYAVR | 394.57 ± 1.1 | 471.99 ± 1.1
41 | GEQGEPGAPGIRTGIQGLK | 452.7 ± 0.99 | 505.34 ± 2.1
42 | KSQAGASELGPFSDPR |  | 497 ± 1.7
43 | TVQGPPGEPGR | 344.87 ± 3.1 | 
44 | SGFGKFER | 339.56 ± 3 | 

Row | Substance | collision cross section (charge state: 2) [Å²] | collision cross section (charge state: 3) [Å²]
45 | AQPSASLGVGYR | 364.53 ± 0.14 | 
46 | SGNLTEDDKHNNAK | 412.58 ± 1.5 | 490.18 ± 3.5
47 | TGPPGSTGSR | 307.73 ± 0.78 | 
48 | VTGGIFSVTK | 335.98 ± 0.58 | 
49 | AQVLAGGRGK | 345.66 ± 0.88 | 
50 | LAPEYEAAATR | 358.54 ± 0.15 | 432.76 ± 0.89
51 | VDATADYICK | 353.92 ± 0.79 | 
52 | TPLTHALPGLSEQEGQK |  | 495.4 ± 0.86
53 | AGQKLIDVNHYAK | 420.25 ± 2.7 | 474.66 ± 4.5
54 | IHPEGPPLK | 335.79 ± 0.58 | 438.33 ± 2
55 | GEKGDPGLIGPK | 373.44 ± 1.5 | 449.05 ± 1.4
56 | HTLLRAPAPELLPANVAGR |  | 530.02 ± 1.9
57 | THLAPYSDELR | 381.48 ± 0.47 | 446.52 ± 1.7
58 | VDIDAPDVSIEGPDAKLK | 460.39 ± 2.9 | 544.84 ± 1.8
59 | IVFSGNLFQHQEDSKK | 493.09 ± 3.3 | 531.43 ± 2
60 | DYSAPVNFISAGLKK | 443.09 ± 2.3 | 512.68 ± 2.7
61 | ITGKNQVTATK | 365.6 ± 0.91 | 448.51 ± 5
62 | VRLQTTLR | 347.32 ± 0.41 | 442.81 ± 6.5
63 | LLEEEDSKLK | 382.28 ± 0.34 | 444.51 ± 4.2
64 | RGVGAGAIAK | 327.01 ± 0.73 | 
65 | PASGAGAGAGAGKR | 378.29 ± 1.2 | 457.42 ± 4
66 | SKLLFSNTAAQK | 393.75 ± 6 | 444.64 ± 5

Row | Substance | collision cross section (charge state: 2) [Å²] | collision cross section (charge state: 3) [Å²]
67 | LGTTPSVYGGAGGRGIR | 444.42 ± 1.7 | 523.45 ± 1.1
68 | GGPGGELPRGPQAGLGPR | 431.54 | 491.33 ± 3.4
69 | VVPGYGHAVLR | 378.3 ± 0.16 | 449.83 ± 0.86
70 | DDIIENAPTTHTEEYSGEEK |  | 551.19 ± 0.23
71 | YSTSGSSGLTTGK | 373.3 ± 0.54 | 
72 | GERGVPGER | 324.16 ± 0.79 | 410.66 ± 1.3
73 | IVSGKDYNVTANSK | 405.96 ± 2.6 | 485.92 ± 5.8
74 | SPASDTYIVFGEAK | 403.4 ± 0.16 | 478.14 ± 0.9
75 | GYLGPEQLPDCLK | 401.23 ± 0.16 | 
76 | LGVPGLPGYPGR | 354.06 ± 0.41 | 
77 | GRGGPGPAQR | 323.16 ± 0.71 | 428.92 ± 5.9
78 | GEAGPTGPQGEPGVRGIR |  | 495.75 ± 4.4
79 | ASCLYGQLPK | 363.85 ± 0.6 | 
80 | DFDTALKHYDK | 391.79 ± 0.64 | 447.79 ± 3.3
81 | DKALPLEAEVAPVK | 407.43 ± 3.2 | 507.63 ± 4.6
82 | GPPPSYGGSSR | 337.81 ± 0.59 | 
83 | GGSGGRGVSVSSAR | 376.75 ± 1.3 | 456.24 ± 1.8
84 | PGPRGQR | 296.23 ± 0.53 | 
85 | KITESVAETAQTIK | 420.69 ± 0.66 | 480.58 ± 0.22
86 | FGDSRGGGGNFGPGPGSNFR |  | 494.59 ± 1.9
87 | DSLGVSFPEELACK | 418.18 ± 0.66 | 
88 | PPGFSPFRSSR | 357.9 ± 0.86 | 455.41 ± 1.7

Row | Substance | collision cross section (charge state: 2) [Å²] | collision cross section (charge state: 3) [Å²]
89 | LDEKENLSAK | 363.87 ± 1.4 | 445.27 ± 6.6
90 | SLEEEGAAHSGKR | 399.57 ± 1.8 | 472.78 ± 3.7
91 | SHLRHAIPSAER | 388.74 ± 0.39 | 458.41 ± 2.7
92 | SGYSSPGSPGTPGSR | 379.95 ± 0.14 | 
93 | TLTPASSPVSSPSKHGDR |  | 512.67 ± 1
94 | TQDQISNIKYHEEFEK | 459.39 | 550.5 ± 0.31
95 | VSPASSVDSNIPSSQGYKK | 469.69 ± 3.1 | 542.55 ± 1.8
96 | GLPGPPGPQGESR | 356.03 ± 0.79 | 
97 | FGSRGGPGGGFR | 358.01 ± 0.11 | 437.12 ± 3.8
98 | SISQSISGQK | 337.94 ± 0.14 | 
99 | AGRGFSLEELR | 376.05 ± 0.67 | 459.45 ± 3.3
100 | EGFSIPVSADGFK | 384.97 ± 0.14 | 
101 | HFGPVPPSQGRGR |  | 493.79 ± 0.89
102 | LSQEDPDYGIR | 376.56 ± 0.14 | 
103 | LGNTISSLFGGGTTPDAK | 447.17 ± 0.13 | 
104 | DAEAAEATAEGALKAEK | 458.36 ± 2.4 | 544.24 ± 2.9
105 | IVEKYGYTHLSAGELLR | 489.48 ± 3 | 538.24 ± 2.8
106 | ELANFDPSRPGPPSGR |  | 494.4 ± 1
107 | GFLQPPPLRQPR | 397.31 ± 0.59 | 451.27 ± 5.3
